Reference: article PMC7980463 (Proceedings of the National Academy of Sciences of the …, 2021)
Numbering of substitutions follows the chain as printed.

T1: MsGyrB47 (D348A) (M. smegmatis, UniProt A0QNE0 1-427, D348A)
T1 sequence: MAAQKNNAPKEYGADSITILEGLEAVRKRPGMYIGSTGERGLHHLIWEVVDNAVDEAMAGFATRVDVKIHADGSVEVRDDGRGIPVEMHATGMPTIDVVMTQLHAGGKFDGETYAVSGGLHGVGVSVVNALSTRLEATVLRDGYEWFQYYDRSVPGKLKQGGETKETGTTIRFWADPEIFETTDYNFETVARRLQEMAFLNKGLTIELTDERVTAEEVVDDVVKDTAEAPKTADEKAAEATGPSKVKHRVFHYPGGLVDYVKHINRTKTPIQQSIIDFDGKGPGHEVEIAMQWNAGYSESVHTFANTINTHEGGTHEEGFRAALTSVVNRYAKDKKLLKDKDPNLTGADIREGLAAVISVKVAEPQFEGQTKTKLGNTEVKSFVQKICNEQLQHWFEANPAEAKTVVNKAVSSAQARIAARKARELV

B1: Mycobacterium smegmatis MfpA (natural protein, M. smegmatis)
chain: MRIGANGDETVWADEEFAGRDFRDEDLSRIRTERVVFTECDFSGVDLSESEHHGSAFRNCTFRRSTIWHSTFTNCSLLGSVFTECRIRPVTFVECDFTLAVLGGCDLRAVDLSDCRLREVSLVGADLRKAVLRRADLTGSRVQDARLEEADLRGTRVDPTFWTTAKVRGAKIDIEQALAYAAAHGLAVHGG
B2: MsGyrB47, the ATPase (N-terminal) domain of M. smegmatis GyrB (domain or fragment)
chain: T1 sequence with A348D

Assays:
MsGyrB47 (D348A) = biological target: T1, MsGyrB47 (D348A); test: cell-based or functional assay
crystal structure = biological target: the molecule itself; test: crystal structure

Binder | stimulation of the ATPase activity by MsMfpA, compared with wild-type MsGyrB47 (MsGyrB47 (D348A)) [fold decrease] | stoichiometry N (crystal structure)
B1 | ~2 | –
B2 | – | 2
